Measured values from IntAct's records for PubMed 12050133.

B1: Homeobox protein SIX3 (Mus musculus), Q62233 (parent)
chain: MVFRSPLDLYSSHFLLPNFADSHHCSLLLASSGGGSGASGGGGGAGGGGGGNRAGGGGAGGAGGGSGGGGSRAPPEELSMFQLPTLNFSPEQVASVCETLEETGDIERLGRFLWSLPVAPGACEAINKHESILRARAVVAFHTGNFRDLYHILENHKFTKESHGKLQAMWLEAHYQEAEKLRGRPLGPVDKYRVRKKFPLPRTIWDGEQKTHCFKERTRSLLREWYLQDPYPNPSKKRELAQATGLTPTQVGNWFKNRRQRDRAAAAKNRLQHQAIGPSGMRSLAEPGCPTHGSAESPSTAASPTTSVSSLTERADTGTSILSVTSSDSECDV

Variants of: B1
Conditions: with tle4_mouse Tle4, Q62441
Chain of tle4_mouse Tle4, Q62441 (Q62441 whole entry): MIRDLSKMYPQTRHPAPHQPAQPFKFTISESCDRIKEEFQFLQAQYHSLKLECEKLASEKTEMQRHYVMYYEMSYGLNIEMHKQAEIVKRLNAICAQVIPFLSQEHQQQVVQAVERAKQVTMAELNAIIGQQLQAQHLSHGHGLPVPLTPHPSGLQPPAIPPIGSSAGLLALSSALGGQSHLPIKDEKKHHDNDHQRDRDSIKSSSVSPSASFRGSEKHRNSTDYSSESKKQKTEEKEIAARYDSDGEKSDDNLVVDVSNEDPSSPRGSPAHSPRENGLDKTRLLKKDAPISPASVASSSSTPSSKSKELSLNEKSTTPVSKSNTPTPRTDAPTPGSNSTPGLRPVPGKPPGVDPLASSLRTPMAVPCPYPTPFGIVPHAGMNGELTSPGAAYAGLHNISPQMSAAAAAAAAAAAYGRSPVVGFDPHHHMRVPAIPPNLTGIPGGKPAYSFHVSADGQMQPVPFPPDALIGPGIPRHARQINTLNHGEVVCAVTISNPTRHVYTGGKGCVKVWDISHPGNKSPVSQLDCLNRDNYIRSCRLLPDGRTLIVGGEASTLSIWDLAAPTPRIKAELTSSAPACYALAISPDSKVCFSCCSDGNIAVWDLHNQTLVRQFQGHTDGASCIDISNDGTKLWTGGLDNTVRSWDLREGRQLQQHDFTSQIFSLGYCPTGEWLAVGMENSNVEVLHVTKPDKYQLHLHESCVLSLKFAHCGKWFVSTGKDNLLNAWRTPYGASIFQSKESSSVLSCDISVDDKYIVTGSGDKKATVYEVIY

effect of a mutation on the interaction | Variant
decreasing interaction | MVFRSPLDLYSSHFLLPNFADSHHCSLLLASSGGGSGASGGGGGAGGGGGGNRAGGGGAGGAGGGSGGGGSRAPPEELSMFQLPTLNESPEQVASVCETLEETGDIERLGRFLWSLPVAPGACEAINKHESILRARAVVAFHTGNFRDLYHILENHKFTKESHGKLQAMWLEAHYQEAEKLRGRPLGPVDKYRVRKKFPLPRTIWDGEQKTHCFKERTRSLLREWYLQDPYPNPSKKRELAQATGLTPTQVGNWFKNRRQRDRAAAAKNRLQHQAIGPSGMRSLAEPGCPTHGSAESPSTAASPTTSVSSLTERADTGTSILSVTSSDSECDV [F88E]
